Test: label from the status in PepcDB records

Sequence | protein production
MSRVAGLSSKKSRWLLQSLLDQQRHSLGTGFESANILLSPKYHLKDKDLRKIHKAARDGDAARVQQLLLGKHCVNDKDKKKRTALHIACAYGHPKVVMALVEGKCEVNATDSEECTSLVKAVQCQEEECATILLENNADPNIVDAQGNSALHYAVYYKNTSLAAKLLDHEVNIEATNKDGFTPFLLAVSENKLKIAKFLLMKNASIHAADNQKRTALMHAVSHDSTNLVRFVLEQGVDLFVKDAFGLTAIDYAADFKYNSKDQQSQELENMEKKYTAAQDSLEYTAAQDSLEHTAAQDSLEHTAAQDGLEYTAAQDSLEHTAAQDSLEHTAAQDSLEHTAAQDSLEYTAAQDSLEYTAAQDSLEYTAAQDSLEHTAAQDSLEYTAAQDSLEHTAAQDSLECTAASNSSRSHALITHVHLSAEPDGGVTSVEEPRRLDDRGDDQPQEAVTAPRTREKEQDMCTVVTGKEDEDESSWDSETNPPSPWGAPEALCAAALDHGDIGSPLTRENGHPRARQSPSVDSEEQDGGSGLNIKEEKTRDHEEWSGDFLMDRTSKESEPAAGDLLQVKDSWSLNDTDPNKGRSGGDPIEESRNATDLNHCKAVYIPPSESANSEIWKGMSSAKARLDNASKGPTVTRF | failed
MSRVPGWLGRLGAGLTRASERLEQRREEARRDDADDGPGPVSDHERRPLDDTAEDSAVEHLAAHRPVALAHRPDPAQAVPWGVRVAAEAGWRLLVLAGTVWVLMRVISAVQLVVLAFVAALLITALLQPAVAWLRRHGVPRGPATALTAILGFVVMGLIGWFVTWQVMENIDNLSDQVQDGIDELRNWLLNSPFHVTDKQINEIAKNLRDAVGANTDQITSAGLEGVTVVVEALTGILLAAFSTLFLLYDGKRIWQWSLKLVPAAARPGVAGAGPRAWRTLTAYVRGTVIVALIDAIFIGLGIYFLDVPMAVPLAVFIFLFAFIPLVGAVVSGALAVVVALVTQGVFAAVMTLVVVLAVQQIEGHILQPFILGRAVRVHPLAVVLSVAAGGMVAGIGGAVVAVPLVAVTNTVVGYLRAYSREAALRRTPRPHGATSTDAAPAVDRVPGPPKPPAPPADGPPSDAP | failed
MSRYDITGSEGEYEPGSDNKVLRNLPGITDPEEMNIVETDLLEDLYLQVFDNFPEELTFETLCQWHRAWLGNVYSWAGQSRTVDMSKPNIRFASPVQIPKLAEKFEARYLPRFAELPEMTDEELVAFLAEVHVEFILIHPFREGNGRISRLLLDVMAAKAGAEPLDYSLWDEHKDFYFKAIQAGRDGDYQHVERLIRDVLEAQQ | failed
MSSAIERKSLDPSEEPVDEVLQIPPSLLTCGGCQQNIGDRYFLKAIDQYWHEDCLSCDLCGCRLGEVGRRLYYKLGRKLCRRDYLRLFGQDGLCASCDKRIRAYEMTMRVKDKVYHLECFKCAACQKHFCVGDRYLLINSDIVCEQDIYEWTKINGMI | failed
MSSALLRVAYAYDRLRAHPPEVAGQIATAMASAVHPKGEEPVFLELGVGTGRIALPLIARGYRYIALDADAAMLEVFRQKIAGVDRKVQVVQADARAIPLPDESVHGVIVVHLWHLVPDWPKVLAEAIRVLKPGGALLEGWDQAEESPEWTLQERWRAFAAEEGFPVERGLHAKRLKEVEEALRCLGLKPRTREVARWREERTPREALEALSERLYSFTQGLPEPVHARVMERLWAWAEAELGDLDRPFPVEKRFLLRVSRLG | failed
MSSASSEAQRLARLALLQVVDTAAEPFFDALAAAAQAIAGTPIALVSLVDERRQWWKANIGLPGVSETPRELAFCTYTIQGDAVMEVRDAPADPRFHDNALVTDAPGIRYYAGAPIVLPDGLRMGTVCVIDQRPRALEPAQLQALQQLAKVAAEGLEQRRVMLEREAANAQLQQRLRESEAFLERTGRVAGVGGWEVDVASGTLIWSDQTCRLHDVPPGYRPSLTEAIGFYPLEARAVITEAVDACVRDGTSWDLELPLTSATGRRLWVHSTGSVEHVDGRKRLIGAVQDVTDRHRAVDALAASERKFRKMFQYSLGLICTHDMHGRLVSINPAAARSLGRSVEQMEGRSLVEFVRPERHAALRGYLSRMVLDGQDSGVIELVAGDGSLRHWQYHNVLDVESDATVVLAHAQDITNQYRQEKQLLEWSFTDPLTNCYNRRFLDELDKRDPAVRWGCIVVDLDKFKLVNDTHGHQRGDEVLVQMAWFLNQPLRTQDRLVRLGGDEFLVLLHQASQTQLDALKRDYMGASEDAPIRFTLGTALRQDGEALAAVVDRADHSLYSLRRARRGTGTSDQR | failed
MSSATGRWRESPPTAVKNEEDNGRCPRELRVQSEAVLAGRYRLEERLGRGGMGEVWRAFDPHLEREVAVKLILSGDNDGVLIRRFQREARISANIQHPNITAVHDFGHHEGQLFLVMELLRGRDLGAVLADHPQGMPLDLVVSVAVQAADALRAAHTHRVVHRDLKPGNLFLLDTGHVKVCDFGIAHIADATSQLTAVGTALGTPAFMPPEQWKGEEVDSRSDVYALGGVMHTMLTGRIPFTGPLPALLAQHLTQDPPPIREFRPDVPLELADLVARMMAKDPAARPDSHELGELIYRAAAPEASGSPAFFSPQIAPQALPTAPPTAAPVPPQPSHATGYAAPSQWMPAAPQPHPTAHPPAEGDPQTMFTLGLRHREQGDIAGAESWYRKAAEAGHLDSMFNLALLSRERGNLVEAESWYRRAAEVGDVDAMVNLGDLLKERGESAEAELWHRRAAEAGHIASMHTLGNLLYSKGDTAEAETWWRRAAEAGNIRAMGVLGNLLEQRGDTFGAEQWYRRAAEAGNLDAMVNLGVLLENRHDTFGAEQWYRRAADAGDIDAMVNLGNLLHGRGDMGSAQYWWQRAAQTGNTRALNHLNQMG | failed
MSSATGSKIVVTGATGNVGTSVVRLLSEDPEVGTVLGLARRIPDWSPAKTEWAAVDLASEQSDLTSHFADADAVVHLAWAFQPTHDPATTWRTNVLGSIRVFEAVAAAGVPALVHASSVGAYSPGPKNHAVDESWPTHGWPDAAYCREKAYLERALDTFERDHPGIRVVRMRPAFLFKRESASEQRRIFGGRFLPGPAARPELLPFLPDVPGLRVQALHTDDAARAYRLAVRSADARGAFNLAAEPPVDAELLGELLGVRPVRLPRAAARSAIAAAWGMRLLPASPHLFDAVLRLPVMDCTRARVELGWGATRTATEVLEEFLRGLRQGAGADTEPMRGRKVG | failed
MSSDAISLRAAGPGDLPGLLELYQVLNPSDPELTTQEAGAVFAAMLAQPGLTIFVATENGKPVATATLLIVPNLTRAARPYAFIENVVTLEARRGRGYGRTVVRHAIETAFGANCYKVMLLTGRHDPAVHAFYESCGFVQNKTGFQIRQD | not failed
MSSDCLNVSYPATGCQKLFEVVDEHKLRVFYEKRMGQVVEADILGDEWKGYQLRIAGGNDKQGFPMKQGVLTHGRVRLLLKKGHSCYRPRRTGERKRKSVRGCIVDANMSVLALVVLKKGEKDIPGLTDTTIPRRLGPKRASKIRKLYNLSKEDDVRRFVVRRPLPAKDNKKATSKAPKIQRLITPVVLQRKHRRIALKKKRQIASKEASADYAKLLVQRKKESKAKREEAKRRRSASIRESKSSVSSDKK | failed
MSSDKTLNVKATGIIALAVMCSRVLGLIREVLFNALFGSASMGIFLIAFRAPNLLRDLFAEGALSVSFITVFSKKIETEGEKSAWQLASKMLTLTSVFMSILCLFGIIFAKYLIFILAPGFSVKDAETTIFLTQLMFPFILLVSLAAIVMGMLNSKNVFGMPALASSFFNIGSILGGALCGWFIDPSFGERALIGLAIGTVIGGLLQLGVQFPSLRKVGFYFKPNFHWYDSGVRNTLILTIPAVIAASAVQINVLINSGFASYLGKEAVTWLNSAFRLMQFPLGVLGVAIATITLPVVSRLAATNNHSQFGSTLARAIRLAVFLTMPAAVGLWFFATPIISLIYEHGKFHASDSLQTAYALQFYALGLVAYSCIKVLSPAFYAIDKKWTPMIVSFATIILNIILNYFLIFKLSMGHRGLALSTTVSATVNFLVLYVLMTRLHNLQNRYLFNTILRCVLASAILGFMCQSIFAYGADFLYHPSFWIRAVSLAISISFAVLVYLSMCVILRVDEAKSIFMIIRHRLGFPIKFKSKQV | failed
MSSDVQKGDNLETPGARDLLLQTASNIMREGDVVDISLSELSLRSGLNSALVKYYFGNKAGLLKALLDRDMENIVKSVDALLAKDDMSPEAKLRRHISKCIDTYYDYPYLNRLLMRLVRDSDEAEAKRIADQYLLPLHRAYNRFIGEGVKAGVFRPINPQLFYFTVTGAADRFFSARLVLKHCFDQDTLTEQLRDSYREHTVDFIMAGILAH | not failed

From a protein production outcome set (Wang et al. 2014)
